In patent US20120172295A1:

Biological target: glucagon receptor (UniProt P47871)
Assay: cell-based or functional assay

Sequence of glucagon receptor (P47871 26-477 limits assumed): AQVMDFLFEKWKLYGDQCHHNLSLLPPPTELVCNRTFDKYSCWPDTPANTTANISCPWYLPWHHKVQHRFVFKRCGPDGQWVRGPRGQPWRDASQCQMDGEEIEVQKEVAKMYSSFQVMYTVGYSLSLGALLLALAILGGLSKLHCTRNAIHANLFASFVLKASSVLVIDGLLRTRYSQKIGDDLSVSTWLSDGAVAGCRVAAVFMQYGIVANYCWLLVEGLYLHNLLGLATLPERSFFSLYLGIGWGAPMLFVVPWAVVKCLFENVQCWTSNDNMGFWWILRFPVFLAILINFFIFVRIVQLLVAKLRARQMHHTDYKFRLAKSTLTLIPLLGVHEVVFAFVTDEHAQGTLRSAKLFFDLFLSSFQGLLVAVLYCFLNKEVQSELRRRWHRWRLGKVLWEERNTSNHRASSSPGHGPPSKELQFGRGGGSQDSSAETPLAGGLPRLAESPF

% relative activity: 0.04%
Substance: Liraglutide (peptide)
